Data on 23 molecules can be found in patent US20140113854A1 (NATIONAL RESEARCH COUNCIL OF CANADA, published 2014).

Positions count from the first letter of the chain named. Positions of bridges follow the written chain, without caps; N, C: chain ends. Non-standard residues stand in square brackets, D forms with d. Chains are numbered I, II in the order given. No end group written: not given here. *: point of attachment. Benzenesulfonyl(4-tBu) = CC(C)(C)c1ccc(S(=O)(=O)*)cc1; dPip = O=C(O)[C@H]1CCCCN1

Assay [1] concerns the target T1, Human α-thrombin (human, UniProt P00734 328-363; P00734 364-622). The assay can be described thus: enzyme kinetics, thrombin-catalysed chromogenic substrate hydrolysis, 37 °C.
Assay [2] addresses T1, Human α-thrombin. In words: inhibition of human α-thrombin.
Assay [3] addresses T1, Human α-thrombin. In words: cell-based or functional assay.
For assay [4], the target named is T1, Human α-thrombin. The assay can be described thus: inhibition of thrombin-catalysed hydrolysis of chromogenic substrate S-2366, 37 °C.
From the text: (§1) Human α-thrombin was purchased from Haemotologic Technologies, Inc., VT, USA.
Assay [5] deals with T1, Human α-thrombin. In words: inhibition of thrombin-catalysed hydrolysis of chromogenic substrate S-2366, 25 °C.
From the text: as §1
Assay [6] concerns the target T1, Human α-thrombin. The assay can be described thus: cell-based or functional assay. This is another data set of the same source.
Assay [7] deals with T2, rat-tail collagen type I (rat, UniProt P02454 152-1207; P02466 86-1125).
T2 construct: Used in solution and as randomly deposited or partially aligned hydrogel; Human collagen gels were also prepared; also called collagen hydrogel; rat collagen
The assay can be described thus: deuterium NMR of collagen gel formed with the peptide; called a semi-quantitative indication of peptide-collagen binding.

Assay [8] deals with T2, rat-tail collagen type I. In words: proton NMR and deuterium coupling constant of collagen gel.
Assay [9] deals with T1, Human α-thrombin. The assay can be described thus: inhibition of thrombin by monovalent active-site moiety; conditions not given at the table.
Assay [10] addresses T1, Human α-thrombin. In words: cell-based or functional assay. This is another data set of the same source.
Assay [11] deals with T1, Human α-thrombin. In words: cell-based or functional assay. This is another data set of the same source.
For assay [12], the target named is T1, Human α-thrombin. In words: inhibition of thrombin-catalysed hydrolysis of chromogenic substrate S-2366, 37 °C. This is another data set of the same source.
The target of assay [13] is T2, rat-tail collagen type I. The assay can be described thus: NMR in collagen hydrogel.
The target in assay [14] is T1, Human α-thrombin. In words: derived from Ki and punfold (KD = Ki x popen), S-2366 kinetics, 37 °C.
From the text: as §1
For assay [15], the target named is T1, Human α-thrombin. In words: thrombin inhibition, 37 °C.
The target of assay [16] is T1, Human α-thrombin. In words: enzyme kinetics, thrombin-catalysed chromogenic substrate hydrolysis, 37 °C, 50 s window.

T2 sequence (P02454 152-1207 limits assumed, chain 1 of 2): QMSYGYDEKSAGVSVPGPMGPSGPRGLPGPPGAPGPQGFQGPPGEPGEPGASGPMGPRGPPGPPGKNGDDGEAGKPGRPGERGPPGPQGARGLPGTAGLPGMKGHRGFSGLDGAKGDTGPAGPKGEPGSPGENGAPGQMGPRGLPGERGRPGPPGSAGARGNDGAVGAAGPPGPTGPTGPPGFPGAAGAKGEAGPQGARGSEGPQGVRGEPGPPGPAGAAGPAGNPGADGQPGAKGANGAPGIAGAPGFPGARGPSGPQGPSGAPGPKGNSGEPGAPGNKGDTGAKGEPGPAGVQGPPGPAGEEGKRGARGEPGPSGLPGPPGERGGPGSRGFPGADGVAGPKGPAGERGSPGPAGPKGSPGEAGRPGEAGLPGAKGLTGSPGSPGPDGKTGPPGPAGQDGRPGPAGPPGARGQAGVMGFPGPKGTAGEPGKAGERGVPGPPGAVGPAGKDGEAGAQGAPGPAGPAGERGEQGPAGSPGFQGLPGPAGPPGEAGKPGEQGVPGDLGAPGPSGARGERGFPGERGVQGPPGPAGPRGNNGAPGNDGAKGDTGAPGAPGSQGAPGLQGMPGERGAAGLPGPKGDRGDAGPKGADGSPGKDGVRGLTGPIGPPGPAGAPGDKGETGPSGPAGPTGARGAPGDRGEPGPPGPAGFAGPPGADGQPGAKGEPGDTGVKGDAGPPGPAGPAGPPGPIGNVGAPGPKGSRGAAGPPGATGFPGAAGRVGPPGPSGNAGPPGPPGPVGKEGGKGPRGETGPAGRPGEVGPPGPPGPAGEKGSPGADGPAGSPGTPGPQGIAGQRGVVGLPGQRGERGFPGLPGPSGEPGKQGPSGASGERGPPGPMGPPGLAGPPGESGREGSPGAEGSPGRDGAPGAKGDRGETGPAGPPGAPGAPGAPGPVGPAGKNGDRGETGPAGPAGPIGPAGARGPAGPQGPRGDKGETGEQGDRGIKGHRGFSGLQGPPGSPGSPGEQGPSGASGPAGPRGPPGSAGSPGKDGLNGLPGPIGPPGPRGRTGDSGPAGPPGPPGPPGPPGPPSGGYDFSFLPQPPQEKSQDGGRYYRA
T2 sequence (P02466 86-1125 limits assumed, chain 2 of 2): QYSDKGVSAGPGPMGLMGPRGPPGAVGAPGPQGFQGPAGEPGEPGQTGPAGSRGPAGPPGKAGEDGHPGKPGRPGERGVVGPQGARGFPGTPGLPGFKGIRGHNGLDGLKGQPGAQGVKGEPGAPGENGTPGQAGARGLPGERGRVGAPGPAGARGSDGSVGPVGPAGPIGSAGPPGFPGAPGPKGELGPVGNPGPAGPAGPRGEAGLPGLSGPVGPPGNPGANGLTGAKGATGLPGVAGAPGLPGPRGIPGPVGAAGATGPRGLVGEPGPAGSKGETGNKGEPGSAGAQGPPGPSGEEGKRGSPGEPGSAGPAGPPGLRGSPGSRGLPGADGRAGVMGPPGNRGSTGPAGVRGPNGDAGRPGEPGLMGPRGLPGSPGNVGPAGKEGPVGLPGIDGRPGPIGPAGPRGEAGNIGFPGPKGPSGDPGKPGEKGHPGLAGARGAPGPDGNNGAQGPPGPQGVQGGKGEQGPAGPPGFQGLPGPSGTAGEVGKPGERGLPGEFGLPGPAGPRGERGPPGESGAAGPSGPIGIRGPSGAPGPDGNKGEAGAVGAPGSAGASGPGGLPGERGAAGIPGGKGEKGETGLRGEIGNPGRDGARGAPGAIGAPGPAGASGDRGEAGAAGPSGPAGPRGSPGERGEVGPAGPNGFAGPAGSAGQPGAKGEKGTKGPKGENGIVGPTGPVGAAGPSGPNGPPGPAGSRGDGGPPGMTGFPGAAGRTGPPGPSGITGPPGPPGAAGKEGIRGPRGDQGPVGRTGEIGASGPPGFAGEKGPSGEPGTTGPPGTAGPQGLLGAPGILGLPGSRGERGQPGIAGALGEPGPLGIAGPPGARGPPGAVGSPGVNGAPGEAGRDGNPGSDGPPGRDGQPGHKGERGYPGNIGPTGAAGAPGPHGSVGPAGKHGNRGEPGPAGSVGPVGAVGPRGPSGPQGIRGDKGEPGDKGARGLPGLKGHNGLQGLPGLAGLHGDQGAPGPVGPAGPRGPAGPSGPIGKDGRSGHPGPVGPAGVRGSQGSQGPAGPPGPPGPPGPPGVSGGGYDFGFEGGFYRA

Usually Ki stands for the equilibrium dissociation constant of an inhibitor or competing ligand from its target. Low values mean higher affinity, high ones lower affinity. On to FQPRPRFTDGEWTWDDATKTWTWTEGDFEEIPEEYL (also called P4223) [BRI-T207], for which, in the assay with Human α-thrombin [1], the affinity corresponds to a Ki of 404 nM.
As for WDPRIRFTDGEWTWDDATKTWTWTEGDFEEIPEEYL [BRI-T219], the Ki with Human α-thrombin [1] is 164 nM.

B1: TWE1 (peptide)
peptide 1: {Benzenesulfonyl(4-tBu)}-R[dPip]GC
peptide 2: CGSGSGSGSGSGSGSGSGDFEEIPEEYLQ
modifications: disulfide I:4-II:1; ends not checked; also: uniformly 15N-labelled
notes: Analog of BTI1 in which the two parts are joined by a disulfide bond
In the case of B1, in the assay with Human α-thrombin [2], affinity was put at a Ki of 2.2 nM.

B2: MH2 (peptide)
peptide: IRFTDGEGTPNPESHNNGDFEEIPEEYLQ
modifications: ends and bridges not checked; also: uniformly 15N-labelled
notes: Linker HV2(42-53); Uniformly 15N-labelled for the NMR work; also called mini-hirudin 2
With B2, the “IC50 (assay not given)” value with Human α-thrombin [3] was ~14 nM. The Ki stood at 67 nM with Human α-thrombin [4] and 34 nM in the assay with Human α-thrombin [5]. The “IC50, T = 37° C.” value with Human α-thrombin [6] stood at 14 nM.
Regarding GEWTYDDATKTFTWTE-NH2 (Isolated linker peptide) [trpzip5-NH2], in the assay with rat-tail collagen type I [7], the “reduction of the deuterium coupling constant (collagen fibril alignment)” value (shortened to “reduction … (collagen fibril alignment)”) was < 0.5 Hz.
As to GEWTYDDATKTFTVTE-NH2 (Isolated linker peptide) [gb1-NH2], the binding result with rat-tail collagen type I [8] was “no binding”.
In the assay with Human α-thrombin [9], IRFTDG (Monovalent active-site moiety) gave a Ki of 7 µM.
Regarding IRFTDGEWTWDDATKTWTWTEGDFEEIPEEYLQ (ends and bridges not checked; also: 15N-labelled) [MH2-wZIP4], the “KI (Thrombin Inhibition); IC50 by the clotting assay, 37 °C” value (shortened to “KI (Thrombin Inhibition); IC50”) with Human α-thrombin [10] was 154 nM. Moreover, in the assay with Human α-thrombin [11], the “IC50, fibrinogen clotting assay, 25 °C” value stood at 245 nM; the “IC50, fibrinogen clotting assay, 37 °C” value came out at 154 nM; the “IC50, fibrinogen clotting assay, 42 °C” value was 148 nM. In the assay with Human α-thrombin [6], the “IC50, T = 37° C.” value is 154 nM.
With IRFTDGEWTYDDATKTFTVTEGDFEEIPEEYLQ (ends and bridges not checked) [MH2-gb1], in the assay with Human α-thrombin [11], the “IC50, fibrinogen clotting assay, 25 °C” value is 49 nM and the “IC50, fibrinogen clotting assay, 37 °C” value was found to be 86 nM.

B3: BRI-T109 (peptide)
peptide: PRFTDGEWTWDDATKTWTWTEGDFEEIPEEYLQ
notes: MH2-wZIP4 with the first residue Ile replaced by Pro; also called P4230
Regarding B3, the Ki with Human α-thrombin [1] worked out at 1450 nM.
With IRFTDGEWTYDDATKTFTWTEGDFEEIPEEYLQ [MH2-wZIP5], the “KI (Thrombin Inhibition); IC50” value with Human α-thrombin [10] is 107 nM. In the assay with Human α-thrombin [11], the “IC50, fibrinogen clotting assay, 25 °C” value amounted to 80 nM and the “IC50, fibrinogen clotting assay, 37 °C” value worked out at 107 nM.
In the case of IRFTDGEWTWDDATKTWTVTEGDFEEIPEEYLQ [MH2-wZIP6], the “KI (Thrombin Inhibition); IC50” value with Human α-thrombin [10] was found to be 53 nM. In addition, in the assay with Human α-thrombin [11], the “IC50, fibrinogen clotting assay, 25 °C” value amounted to 47 nM and the “IC50, fibrinogen clotting assay, 37 °C” value was 53 nM.
As for IRFTDGSGSGSGSGSGSGDFEEIPEEYLQ (ends and bridges not checked, (GS)6 linker) [MH2-allGS], the inhibition constant Ki in the assay with Human α-thrombin [1] was 58 nM; in the assay with Human α-thrombin [4] it was 50 nM; with Human α-thrombin [5] it was 30 nM.
For IRFTDGEGTGSGSGSGSGDFEEIPEEYLQ (ends and bridges not checked, GEGT(GS)4 linker; comparative control) [MH2-GS], the figures for the Ki with Human α-thrombin [12], in the assay with Human α-thrombin [4] and with Human α-thrombin [5] were 60 nM, 59 nM and 27 nM, respectively. The binding result with rat-tail collagen type I [13] is “no binding”.
Molecule IRFTDGGSWTWEGNKWTWKGGDFEEIPEEYLQ (also called P4268) [MH2-wZIP1-2G] registered a Ki with Human α-thrombin [1] of 16.6 nM.

B4: BTI2 (peptide)
peptide: XRXGEWTYDDATKTFTVTEGDFEEIPEEYLQ
modifications: N-terminal Bbs (4-tert-butyl-benzenesulfonyl) on Arg; D-pipecolic acid (D-Pip) after Arg
notes: gb1 linker
Usually Kd stands for the constant that tells how readily two partners part at equilibrium. High values mean a looser complex, low ones a tighter complex. The molecule B4 returned a Kd with Human α-thrombin [14] of 2.8 nM.

B5: BTI4 (peptide)
peptide: B4 peptide with V17W
modifications: N-terminal Bbs (4-tert-butyl-benzenesulfonyl) on Arg; D-pipecolic acid (D-Pip) after Arg
B5: the Kd in the assay with Human α-thrombin [14] worked out at 2.8 nM.
As to GEWTWDDATKTWTWTE-NH2 (Isolated linker peptide) [trpzip4-NH2], in the assay with rat-tail collagen type I [7], the “reduction … (collagen fibril alignment)” value was > 1 Hz.
Consider GEWTWDDATKTWTVTE-NH2 (Isolated linker peptide) [trpzip6-NH2], for which, in the assay with rat-tail collagen type I [7], the “reduction … (collagen fibril alignment)” value was < 0.5 Hz.
In the assay with Human α-thrombin [1], [dF]PRPRFTDGEWTWDDATKTWTWTEGDFEEIPEEYL (ends and bridges not checked, also called P4229) [BRI-T208] displayed a Ki of 28 nM. In addition, in the assay with Human α-thrombin [15], the “fold reduction of Ki as compared to BRI-T207” value was ~13 fold and the “fold reduction of Ki as compared to MH2-wZIP4” value is ~5 fold.
In the assay with Human α-thrombin [16], [dF]PRIRFTDGEWTWDDATKTWTWTEGDFEEIPEEYL (ends and bridges not checked, also called P4238) [BRI-T218] yielded a Ki of 14 nM.
Take VRFTDGEGTPKPQSHDNGDFEEIPEEYLQ (ends and bridges not checked) [MH1]: in the assay with Human α-thrombin [3], the “IC50 (assay not given)” value was ~33 nM.
Turning to IRFTDGSWTWEGNKWTWKGDFEEIPEEYLQ (also called P4269) [MH2-wZIP1], the Ki in the assay with Human α-thrombin [1] amounted to 18.4 nM.
